The values that follow come from US20030165468A1, “Regulated vectors for controlling DNA hypermutability in eukaryotic cells” (priority 2002, published 2003).

Assay [1] deals with cells expressing the HSV-TK gene product. Nature of the assay: Negative selection with ganciclovir of cultures containing pIRES-PMS134-TK. In kind it is cell-based, human. To be noted: HEK293 cultures with pIRES-PMS134-TK; ganciclovir for 5 days, then 10 days in growth media alone. The procedure: Once a hypermutable cell line is developed, it can be screened for to identify subclones with novel phenotypes for target discovery and/or product development. Once the subclone with a desired phenotype is identified, it is important to be able to restore the DNA stability within the host cell. In order to accomplish this, one must remove or completely suppress the expression of the mutator gene. Briefly, cultures are grown in the presence of the prodrug ganciclovir (Sigma), which kills cells expressing the HSV-TK gene product for 5 days. After 5 days, cells are grown for 10 days in growth media alone at which time greater than 95% of cells die off. Resistant clones are then picked and expanded in 10 cm petri dishes. Cells are grown for 3 weeks and then a portion is analyzed for PMS134 expression by western blot and RT-PCR. […] Analysis of cells after two months of culture have not observed re-expression of the PMS 134 gene using western or RT-PCR analysis (not shown). […] No de novo instable microsatellites are observed in the GR cells in contrast to the parental IRES-PMS134-TK line as expected.

In another assay the test system is 293 cells. Nature of the assay: Microsatellite instability of endogenous loci using the BAT26 diagnostic marker. It counts as cell-based, human. To be noted: PMS134 expressing 293 cells. The procedure:
Next, selected clones expressing PMS134 are expanded and analyzed for MMR deficiency using methods as previously described. Briefly, cells containing the pIRES-PMS134-TK vector or control were measured for microsatellite instability of endogenous loci using the BAT26 diagnostic marker as described (Hoang J. M. et al. (1997) Cancer Res. 57:300-303). Cells are harvested and genomic DNA is isolated using the salting out method (Nicolaides, N. C. et al. (1991) Mol. Cell. Biol. 11:6166-6176). DNAs are diluted by limiting dilution to determine the level of sensitivity of the assay. DNAs are PCR amplified using the BAT26F: 5′-[…]-3′ (SEQ ID NO: 25) and the BAT26R: 5′-[…]-3′ (SEQ ID NO: 26) primers in buffers as described (Nicolaides, N. C. et al. (1995) Genomics 30:195-206). Briefly 1 pg to 100 ngs of DNA is amplified using the following conditions: 94° C. for 30 sec, 58° C. for 30 sec, 72° C. for 30 sec for 30 cycles. PCR reactions are electrophoresed on 12% polyacrylamide TBE gels (Novex) or 4% agarose gels and stained with ethidium bromide.
To measure for microsatellite stability in 293 cells, DNAs were amplified using the reaction conditions above.

For the molecule `Nc1nc(O)c2ncn(COC(CO)CO)c2n1` [ganciclovir], the cells die off result in assay [1] is on record as “greater than 95%”.

B1: PMS134: dominant negative mismatch repair protein, expressed from pIRES-PMS134-TK with a C-terminal V5 tag (protein, listed as Homo sapiens)
chain: RGGSGVASMERAESSSTEPAKAIKPIDRKSVHQICSGQVVLSLSTAVKELVENSLDAGATNIDLKLKDYGVDLIEVSDNGCGVEEENFEGLTLKHHTSKIQEFADLTQVETFGFRGEALSSLCALSDVTISTCHASAKVGT
modifications: C-terminal V5 tag
With B1, in the assay on 293 cells (biochemical and genetic manifestations of MMR deficiency), the “effect on mismatch repair (MMR)” value is “robust dominant negative effect”. Besides, the “microsatellite instability (altered BAT26 alleles)” value in the assay on 293 cells (no altered alleles in MMR-proficient control cells) was “a number of alterations”.
